According to patent publication US20260028403A1 (Zymeworks, published 2026):
Positions count from the first letter of the chain named.

T1: Cynomolgus monkey CLDN18 (cynomolgus monkey)
T1 construct: on transfected HEK293-6E cells; also called Cyno CLDN18; cyno CLDN18.2 ortholog
T1 chain: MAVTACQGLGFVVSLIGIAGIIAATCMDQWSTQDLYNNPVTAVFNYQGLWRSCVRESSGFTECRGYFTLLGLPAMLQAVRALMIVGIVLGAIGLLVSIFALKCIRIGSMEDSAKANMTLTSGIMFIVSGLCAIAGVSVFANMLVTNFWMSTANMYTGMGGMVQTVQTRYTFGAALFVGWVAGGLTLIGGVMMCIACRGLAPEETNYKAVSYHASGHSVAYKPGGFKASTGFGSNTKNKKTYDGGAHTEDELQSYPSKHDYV

T2: Mouse CLDN18 A2.1 (mouse, UniProt P56857 10-264)
T2 construct: on transfected HEK293-6E cells; also called Mouse CLDN18 2.1; mouse CLDN18.2 ortholog
T2 chain: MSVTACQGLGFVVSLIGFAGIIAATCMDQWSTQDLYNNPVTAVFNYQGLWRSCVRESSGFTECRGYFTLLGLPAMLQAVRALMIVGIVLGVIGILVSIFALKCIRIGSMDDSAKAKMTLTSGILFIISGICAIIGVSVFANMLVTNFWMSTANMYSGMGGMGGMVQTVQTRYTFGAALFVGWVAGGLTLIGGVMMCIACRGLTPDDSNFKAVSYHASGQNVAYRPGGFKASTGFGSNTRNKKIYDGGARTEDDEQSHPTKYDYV

B1: v37638 (trispecific antibody, human IgG1, kappa, L234A L235A)
heavy 1: not shown
heavy 2: QVQLVESGGGLVQPGGSLRLSCSVSGIDLSSNPMIWVRQAPGKGLQYIGIIDTDGSTYYADWAKGRFTISKDSTTVYLQINSPRAEDTAVYYCARRLHGSSNGYYDDLWGQGTLVTVSSGGGGSGGGGSGGGGSGGGGSDGQMTQSPSSVSASVGDRVTITCQASQSIYSYLSWYQQKPGQRPKLLIYKASTLASGVPSRFSGSGSGTDFTLTISSVQPEDFATYYCQQGYTVTNVDKNTFGGGTKVEIKAAEPKSSDKTHTCPPCPAPEAAGGPSVFLFPPKPKDTLMISRTPEVTCVVVSVSHEDPEVKFNWYVDGVEVHNAKTKPREEQYNSTYRVVSVLTVLHQDWLNGKEYKCKVSNKALPAPIEKTISKAKGQPREPQVYVLPPSRDELTKNQVSLLCLVKGFYPSDIAVEWESNGQPENNYLTWPPVLDSDGSFFLYSKLTVDKSRWQQGNVFSCSVMHEALHNHYTQKSLSLSPG
light: DIQMTQSPSSLSASVGDRVTITCRASESVEYYVTSLMQWYQQKPGKAPKLLIYAASNVDSGVPSRFSGSGSGTDFTLTISSLQPEDIATYYCQQSRKVPFTFGGGTKVEIKRTVAAPSVFIFPPSDEQLKSGTASVVCLLNNFYPREAKVQWKVDNALQSGNSQESVTEQDSKDSTYSLSSTLTLSKADYEKHKVYACEVTHQGLSSPVTKSFNRGEC
notes: wild type huTN228 Fab; Het Fc, FcKO; also called Cldn18.2xCD3xCD28 trispecific
B2: v37640 (trispecific antibody, human IgG1, kappa, L234A L235A)
heavy 1: QVQLQESGPGLVKPSETLSLTCAVSGFSLTSYGVHWIRQPPGKGLEWLGVIWPGGGTNFNSALMSRLTISEDTSKNQVSLKLSSVTAADTAVYYCARDRAYGNYLYAMDYWGQGTLVTVSSASTKGPSVFPLAPSSKSTSGGTAALGCLVKDYFPEPVTVSWNSGALTSGVHTFPAVLQSSGLYSLSSVVTVPSSSLGTQTYICNVNHKPSNTKVDKKVEPKSCDKTHTCPPCPAPEAAGGPSVFLFPPKPKDTLMISRTPEVTCVVVSVSHEDPEVKFNWYVDGVEVHNAKTKPREEQYNSTYRVVSVLTVLHQDWLNGKEYKCKVSNKALPAPIEKTISKAKGQPREPQVYVYPPSRDELTKNQVSLTCLVKGFYPSDIAVEWESNGQPENNYKTTPPVLDSDGSFALVSKLTVDKSRWQQGNVFSCSVMHEALHNHYTQKSLSLSPGGGGGSGNFMLTQPHSVSESPGKTVTISCKRNTGNIGSNYVNWYQQHEGSSPTTIIYRNDKRPDGVSDRFSGSIDRSSKSASLTISNLKTEDEADYFCQSYSSGFIFGGGTKLTVLGGGGSGGGGSGGGGSGGGGSEVQLVESGGGLVQPGGSLRLSCAASGVTFNYYGMSWIRQAPGKGLEWVASITSSGGRIYYPDSVKGRFTISRENTQKTLYLQMNSLRAEDTAVYYCTLDGRDGWVAYWGQGTLVTVSS
heavy 2: B1 heavy 2
light: B1 light
notes: Het Fc, FcKO; also called Cldn18.2xCD28xCD3 trispecific
B3: v37635 (trispecific antibody, human IgG1, lambda, L234A L235A)
heavy 1: EVQLVESGGGLVQPGGSLRLSCAASGVTFNYYGMSWIRQAPGKGLEWVASITSSGGRIYYPDSVKGRFTISRENTQKTLYLQMNSLRAEDTAVYYCTLDGRDGWVAYWGQGTLVTVSSASTKGPSVFPLAPSSKSTSGGTAALGCLVKDYFPEPVTVSWNSGALTSGVHTFPAVLQSSGLYSLSSVVTVPSSSLGTQTYICNVNHKPSNTKVDKKVEPKSCDKTHTCPPCPAPEAAGGPSVFLFPPKPKDTLMISRTPEVTCVVVSVSHEDPEVKFNWYVDGVEVHNAKTKPREEQYNSTYRVVSVLTVLHQDWLNGKEYKCKVSNKALPAPIEKTISKAKGQPREPQVYVYPPSRDELTKNQVSLTCLVKGFYPSDIAVEWESNGQPENNYKTTPPVLDSDGSFALVSKLTVDKSRWQQGNVFSCSVMHEALHNHYTQKSLSLSPGGGGGSGDIQMTQSPSSLSASVGDRVTITCRASESVEYYVTSLMQWYQQKPGKAPKLLIYAASNVDSGVPSRFSGSGSGTDFTLTISSLQPEDIATYYCQQSRKVPFTFGGGTKVEIKGGGGSGGGGSGGGGSGGGGSQVQLQESGPGLVKPSETLSLTCAVSGFSLTSYGVHWIRQPPGKGLEWLGVIWPGGGTNFNSALMSRLTISEDTSKNQVSLKLSSVTAADTAVYYCARDRAYGNYLYAMDYWGQGTLVTVSS
heavy 2: B1 heavy 2
light: NFMLTQPHSVSESPGKTVTISCKRNTGNIGSNYVNWYQQHEGSSPTTIIYRNDKRPDGVSDRFSGSIDRSSKSASLTISNLKTEDEADYFCQSYSSGFIFGGGTKLTVLGQPKAAPSVTLFPPSSEELQANKATLVCLISDFYPGAVTVAWKADSSPVKAGVETTTPSKQSNNKYAASSYLSLTPEQWKSHRSYSCQVTHEGSTVEKTVAPTECS
notes: Het Fc, FcKO; also called CD3xCD28xCldn18.2 trispecific
B4: v35777 (antibody, human IgG1, V domains shown)
VH: QSLEESGGRLVTPGTPLTLTCTVSGIDLSSNPMIWVRQAPGKGLQYIGIIDTDGSTYYASWAKGRFTGSKTSTTVDLKITSPTTEDTATYFCARRLHGSSNGYYDDLWGQGTLVTISS
VL: DGVMTQTPSSVSAAVGGTVTIKCQASQSIYSYLSWYQQKPGQRPKLLIYKASTLASGVPSRFKGSGSGTEFTLTISGVQCDDAATYYCQQGYTVTNVDKNTFGGGTEVVVK
notes: also called parental rabbit chimeric; rabbit-human chimeric IgG1/kappa anti-CLDN18.2
B5: v37407 (antibody, human IgG1, V domains shown)
VH: QVQLVESGGGLVQPGGSLRLSCSVSGIDLSSNPMIWVRQAPGKGLEYIGIIDTDGSTYYADWAKGRFTISKDSTTVYLQMNSLRAEDTAVYYCARRLHGSSNGYYDDLWGQGTLVTVSS
VL: DGQMTQSPSSVSASVGDRVTITCQASQSIYSYLSWYQQKPGQRPKLLIYKASTLASGVPSRFSGSGSGTDFTLTISSVQPEDFATYYCQQGYTVTNVDKNTFGGGTKVEIK
notes: human IgG1-based monoclonal antibody; also called H4-L4
B6: v37409 (antibody, human IgG1, V domains shown)
VH: QVQLVESGGGLVQPGGSLRLSCSVSGIDLSSNPMIWVRQAPGKGLEYIGIIDTDGSTYYADWAKGRFTISKDSSKNTVYLQMNSLRAEDTAVYYCARRLHGSSNGYYDDLWGQGTLVTVSS
VL: B5 VL
notes: human IgG1-based monoclonal antibody; also called H2-L4
B7: v37411 (antibody, human IgG1, V domains shown)
VH: B5 VH with E46Q, M80I, L83P
VL: B5 VL
notes: human IgG1-based monoclonal antibody; also called H5-L4; anti-CLDN18.2 mAb
B8: v37410 (antibody, human IgG1, V domains shown)
VH: B6 VH with E46Q
VL: B5 VL
notes: human IgG1-based monoclonal antibody; also called H3-L4
B9: v37408 (antibody, human IgG1, V domains shown)
VH: B5 VH
VL: B5 VL with F83A, I110V
notes: human IgG1-based monoclonal antibody; also called H4-L2

Key:
[1] = target: T3, CD28 on primary human T cells (human, UniProt P10747 19-220); assay: cell-based or functional assay
[2] = target: T4, Human CLDN18.2 (human); assay: flow cytometry, SNU 601 cells
T4 construct: on transfected HEK293-6E cells or native on SNU 601 cells
Protocol: To determine the impact of the trispecific construct format on the construct's ability to binding CLDN18.2, the binding affinity to CLDN18.2 was measured for certain constructs using flow cytometry as described below.
To that end, cells (>80% viability) were resuspended to 1×10⁶ cells/mL in FACS buffer (PBS+2% FBS; Gibco) and seeded in a 96 well v-bottom plate (Sarstedt). Cells were mixed with antibody dilutions and incubated at 4° C. for one hour. Following incubation, cells were washed twice by adding 150 mL FACS buffer and centrifuging for 400×g for 3 minutes. […] Cells were washed twice by adding 150 mL FACS buffer and centrifuging for 400×g for 3 minutes. Cells were resuspended in FACS buffer and acquired on the BD LSRFortessa Cell Analyzer.

[3] = target: T3, CD28 on primary human T cells; assay: cell-based or functional assay; remark: listed apart in the source
[4] = target: T5, Recombinant human/cynomolgus/rhesus macaque CD28 mouse IgG2a Fc fusion protein (Acro Biosystems) (human/cynomolgus/rhesus macaque, UniProt P10747 19-152); assay: SPR, in-format anti-CD28 variants, huCD28
T5 construct: bought; also called huCD28

[5] = target: T5, Recombinant human/cynomolgus/rhesus …; assay: SPR Biacore T200, CD28-mIgG2a Fc on CM5, construct injected, 1:1 model;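 note: fc fusion captured by amine coupling, run at 25 °C in HEPES buffer pH 7.4, association 140-500 s then dissociation 600-1200 s, values averaged over three independent runs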
Protocol: All SPR binding experiments were carried out using a BiacoreT200 instrument at 25° C. with 10 mM HEPES, 150 mM NaCl, 3 mM EDTA, and 0.05% Tween 20 at pH 7.4. Recombinant human/cynomolgus/rhesus macaque CD28 mouse IgG2a Fc fusion protein (Acro Biosystems) was covalently immobilized on CM5 sensor chips by amine coupling. Purified antibody constructs to be tested were injected on the sensor chip at 30 μL/min for 140-500 s following a dissociation for 600-1200 s. Resultant kₒₙ, koff and KD values were determined from fitting the sensorgrams using the 1:1 binding model with reported values as the mean of three independent runs.

[6] = target: T6, Recombinant human CD3 epsilon/delta heterodimer, his tag protein (Acro Biosystems) (human, UniProt P07766 23-126; P04234 22-105); assay: SPR Biacore T200, CD3 e/d-his on CM5, construct injected, 1:1 model;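 note: measured at 25 °C in HEPES-buffered saline with EDTA and Tween 20 at pH 7.4, values are means of three independent runs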
T6 construct: bought

[7] = target: T1, Cynomolgus monkey CLDN18; assay: flow cytometry, HEK293-6E + cyno CLDN18, 4PL fit
Protocol: (§1) The purified rabbit chimeric and humanized constructs were assessed for binding to HEK293-6E cells transfected with human, cynomolgus monkey, or mouse CLDN18.2 orthologs (TABLE 12) by flow cytometry. […] Constructs were also assessed for binding to HEK293-6E cells transfected with human CLDN18.1.

[8] = target: T4, Human CLDN18.2; assay: flow cytometry, HEK293-6E + human CLDN18.2, 4PL fit
Protocol: as §1

[9] = target: T2, Mouse CLDN18 A2.1; assay: flow cytometry, HEK293-6E + mouse CLDN18, 4PL fit
Protocol: as §1

Row | Binder | Bmax [2] | EC50 [2] | Kd [5] | koff [5] | kon [5] | Kd [6] | koff [6] | kon [6] | Bmax [7] | EC50 [7] | Bmax [8] | EC50 [8] | Bmax [9] | EC50 [9] | further results
1 | B1 | 9140 MFI | 47.5 nM | 22.2 nM | 0.0021 s⁻¹ | 95500 M⁻¹ s⁻¹ | 74.6 nM | 0.0123 s⁻¹ | 164000 M⁻¹ s⁻¹ | – | – | – | – | – | – | IC50, T cell-dependent cytotoxicity on SNU 601 [1]: 0.00017 nM; Maximum Killing (%), SNU 601 [1]: 88.2%; IL-2 maximum cytokine, T cells alone [3]: 1750 pg/mL; IL-2 maximum cytokine, T cells with SNU 601 cells [3]: 3710 pg/mL; TNFa maximum cytokine, T cells alone [3]: 115 pg/mL; TNFa maximum cytokine, T cells with SNU 601 cells [3]: 670 pg/mL; Fold-change from WT [4]: 1 fold; Kd [4]: 22.2 nM; koff [4]: 0.0021 s⁻¹; kon [4]: 95500 M⁻¹ s⁻¹
2 | B2 | 9770 MFI | 26.4 nM | 27.3 nM | 0.00212 s⁻¹ | 77800 M⁻¹ s⁻¹ | 296 nM | 0.0155 s⁻¹ | 52200 M⁻¹ s⁻¹ | – | – | – | – | – | – | –
3 | B3 | 6600 MFI | 30.1 nM | 288 nM | 0.0107 s⁻¹ | 40400 M⁻¹ s⁻¹ | 92.5 nM | 0.0143 s⁻¹ | 157000 M⁻¹ s⁻¹ | – | – | – | – | – | – | –
4 | B4 | – | – | – | – | – | – | – | – | 1660 | 0.48 nM | 2070 | 1.29 nM | 1640 | 0.87 nM | –
5 | B5 | – | – | – | – | – | – | – | – | 1410 | 0.24 nM | 2040 | 1.54 nM | 1540 | 0.8 nM | –
6 | B6 | – | – | – | – | – | – | – | – | 1500 | 0.35 nM | 1960 | 1.22 nM | 1530 | 0.89 nM | –
7 | B7 | 11700 MFI | 8.9 nM | – | – | – | – | – | – | 1730 | 0.37 nM | 2170 | 1.05 nM | 1790 | 1.03 nM | –
8 | B8 | – | – | – | – | – | – | – | – | 1500 | 0.31 nM | 1910 | 0.97 nM | 1690 | 1.02 nM | –
9 | B9 | – | – | – | – | – | – | – | – | 1520 | 0.36 nM | 2190 | 1.87 nM | 1920 | 2.65 nM | –
